For assay [1], the target named is pH-GluA1 S845D phosphomimetic mutant (UniProt P19490). In words: co-IP; HEK293 cells co-transfected with HA-Nedd4-1 and pH-GluA1 constructs, lysed 48 h later (1% Triton X-100 lysis buffer with 10 mM N-ethylmaleimide); immunoprecipitation with anti-GFP antibodies on protein A-Sepharose overnight at 4 °C; blots with anti-HA and anti-GluA1; bound HA-Nedd4-1 quantified and normalized to the wild-type control.

Assay [2] concerns the target pH-GluA1 S831A phosphodeficient mutant (UniProt P19490). Described as above.
Assay [3] concerns the target pH-GluA1 S831D phosphomimetic mutant (UniProt P19490). Described as above.
Assay [4] has as its target pH-GluA1 S845A phosphodeficient mutant (UniProt P19490). Described as above.
Assay [5] has as its target pH-GluA1 S845D phosphomimetic mutant (UniProt P19490).

“HA-Nedd4-1 (from UniProt P46934 1-1319) (enzyme)”: the HA-Nedd4-1 binding, percent of WT control (% of WT control) in assay [1] turned out to be 53.2; in assay [2], 74.1; in assay [3] it was 112; in assay [4], 90.9. The substance also displayed an AMPA-induced ubiquitination of pH-GluA1 S845D in cortical neurons (IP: GFP, blot for ubiquitin), relative to wild type (% of WT control) in assay [5] of 65.2.

These data come from paper PMC5437227.
